Experimental data: patent US20240182596A1 (TUBULIS, published 2024)

What was measured:
[1] = biological target: T1, purified recombinant human Napi2b antigen consisting of Napi2b-extracellular-loop2 expressed as … (human, UniProt O95436 234-362, limits assumed); experiment: ELISA on the isolated immobilized protein; table column Binding KD (nmol/L), ELISA
T1 construct: Expressed in Expi-HEK293 cells; also called immobilized human NaPi2B; not shown: Fc part; 6-His tag
T1 sequence: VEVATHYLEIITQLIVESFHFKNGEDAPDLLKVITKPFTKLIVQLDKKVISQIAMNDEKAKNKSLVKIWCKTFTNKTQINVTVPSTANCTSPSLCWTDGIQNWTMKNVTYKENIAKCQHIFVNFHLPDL

FcγRIIa (CD32) (H131) = biological target: T2, FcγRIIa (CD32) (H131) (Fused to the SmBiT luciferase fragment (Promega Lumit reagent), not carried in the letters); experiment: Lumit FcγRIIa (H131) Binding Immunoassay (Promega), left panel FcγRIIa (CD32) (H131), competition with Tracer-LgBiT for FcγR-SmBiT, n=1
T2 construct: m20 joins both polymorphic variants; also called H131 variant of m20; not shown: SmBiT tag (and any linker or purification tag) of Promega's FcγR-SmBiT fusion
T2 chain: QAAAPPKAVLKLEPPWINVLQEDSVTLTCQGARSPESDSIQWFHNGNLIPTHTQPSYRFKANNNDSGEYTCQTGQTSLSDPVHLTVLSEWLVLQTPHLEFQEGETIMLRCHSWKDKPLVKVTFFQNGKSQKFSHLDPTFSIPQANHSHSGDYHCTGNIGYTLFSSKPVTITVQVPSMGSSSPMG

[2] = biological target: T3, human Napi2a-mCherry on HEK293 cells (human, UniProt Q06495 1-639); experiment: flow cytometry on HEK293 cells expressing human Napi2a-mCherry (panel Napi2a-HEK293), MFI ratio to the non-specific binding control
T3 construct: whole, on cells; also called Napi2a (SLC34A1); not shown: mCherry fusion
T3 sequence (looked up): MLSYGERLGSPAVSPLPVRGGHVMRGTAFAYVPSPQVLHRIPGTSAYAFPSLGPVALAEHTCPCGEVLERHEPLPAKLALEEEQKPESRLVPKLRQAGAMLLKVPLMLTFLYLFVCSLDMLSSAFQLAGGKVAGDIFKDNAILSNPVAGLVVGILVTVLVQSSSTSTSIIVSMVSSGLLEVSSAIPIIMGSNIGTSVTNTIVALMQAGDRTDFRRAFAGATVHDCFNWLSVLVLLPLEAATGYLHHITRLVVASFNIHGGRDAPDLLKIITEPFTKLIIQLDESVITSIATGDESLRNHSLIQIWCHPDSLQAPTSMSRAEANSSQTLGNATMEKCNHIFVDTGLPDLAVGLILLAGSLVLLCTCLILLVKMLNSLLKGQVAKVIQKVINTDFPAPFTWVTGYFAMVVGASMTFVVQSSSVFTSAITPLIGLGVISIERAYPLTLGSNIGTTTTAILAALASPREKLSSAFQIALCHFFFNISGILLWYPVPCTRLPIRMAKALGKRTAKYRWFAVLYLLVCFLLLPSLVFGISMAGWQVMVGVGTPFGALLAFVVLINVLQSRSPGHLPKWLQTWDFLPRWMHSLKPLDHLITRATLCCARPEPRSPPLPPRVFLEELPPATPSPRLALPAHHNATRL

[3] = biological target: T4, human NaPi2b on NaPi2b-positive cell lines OVCAR-3 and HCC-78 (human, UniProt O95436 1-690); experiment: flow cytometry on NaPi2b-positive HCC-78 cells, Alexa-dye-labeled anti-human IgG H+L secondary antibody, MFI ratio normalized to the non-specific binding control
T4 construct: Endogenous protein
T4 sequence: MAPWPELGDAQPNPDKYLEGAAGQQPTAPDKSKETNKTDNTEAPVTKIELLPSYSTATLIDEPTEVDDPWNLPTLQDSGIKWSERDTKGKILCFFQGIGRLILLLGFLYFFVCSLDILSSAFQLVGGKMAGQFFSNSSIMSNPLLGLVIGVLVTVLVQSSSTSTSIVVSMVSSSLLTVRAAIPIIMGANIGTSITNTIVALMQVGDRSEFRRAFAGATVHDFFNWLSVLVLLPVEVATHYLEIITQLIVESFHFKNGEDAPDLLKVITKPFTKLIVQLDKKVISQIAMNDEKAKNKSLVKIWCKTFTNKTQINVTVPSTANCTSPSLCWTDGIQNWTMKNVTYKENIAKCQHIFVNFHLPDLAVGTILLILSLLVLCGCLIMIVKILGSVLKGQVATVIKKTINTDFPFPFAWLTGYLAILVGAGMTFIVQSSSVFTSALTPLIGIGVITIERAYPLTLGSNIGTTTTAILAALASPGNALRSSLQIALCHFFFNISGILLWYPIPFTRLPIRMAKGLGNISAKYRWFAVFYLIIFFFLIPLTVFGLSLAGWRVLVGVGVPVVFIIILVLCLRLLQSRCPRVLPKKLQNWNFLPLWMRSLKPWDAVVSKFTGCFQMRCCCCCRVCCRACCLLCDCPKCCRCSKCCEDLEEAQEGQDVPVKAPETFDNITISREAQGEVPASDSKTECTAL
Method: (§1) To determine concentration-dependent binding, NaPi2b-positive OVCAR-3 and HCC-78 were incubated with antibodies in concentrations ranging from 0.00075 to 30 μg/ml, stained with an Alexa-dye-labeled anti-human IgG H+L secondary antibody (Thermo Fisher Scientific), and analyzed by flow cytometry. Mean fluorescence intensity (MFI) ratios were normalized to the non-specific binding control. The assay was performed in duplicates and data points were analyzed by a non-linear regression using a one-site specific binding model using Prism 9 software.

[4] = biological target: T1, purified recombinant human Napi2b …; experiment: ELISA, coated Napi2b-extracellular-loop2-Fc-6-His, apparent KD from one-site fit
Method: To determine binding of parental and AV mAb clones to Napi2b antigen, flat-bottom surface-treated 96-well-plates (Nunclon, Thermo Fisher Scientific) were coated with 1 μg/mL purified recombinant human Napi2b antigen consisting of Napi2b-extracellular-loop2 expressed as Fc-fusion-6-His-tagged protein in Expi-HEK293 cells. […] Bound antibodies were detected by incubation with HRP-conjugated goat anti-human kappa light chain secondary antibody (dilution 1:10000 in blocking solution) for 1 hr at RT. […] Absorbance at 450 nm was measured within 10 min of addition of acid using a microplate reader Infinite M1000 Pro (Tecan). Apparent dissociation constants (KD) were derived by non-linear regression using a one-site specific binding model using Prism 9 software.

[5] = biological target: T5, human Napi2b-mCherry on HEK293 cells (human, UniProt O95436 1-690); experiment: flow cytometry on HEK293 cells stably expressing human full-length NaPi2b-mCherry, Alexa-dye anti-human IgG H+L secondary antibody, MFI ratio, one-site specific binding fit; the Kd table prints no unit, the concentration axis is in nM
T5 construct: also called Napi2b (SLC34A2); HEK293 cells overexpressing Napi2b
T5 sequence: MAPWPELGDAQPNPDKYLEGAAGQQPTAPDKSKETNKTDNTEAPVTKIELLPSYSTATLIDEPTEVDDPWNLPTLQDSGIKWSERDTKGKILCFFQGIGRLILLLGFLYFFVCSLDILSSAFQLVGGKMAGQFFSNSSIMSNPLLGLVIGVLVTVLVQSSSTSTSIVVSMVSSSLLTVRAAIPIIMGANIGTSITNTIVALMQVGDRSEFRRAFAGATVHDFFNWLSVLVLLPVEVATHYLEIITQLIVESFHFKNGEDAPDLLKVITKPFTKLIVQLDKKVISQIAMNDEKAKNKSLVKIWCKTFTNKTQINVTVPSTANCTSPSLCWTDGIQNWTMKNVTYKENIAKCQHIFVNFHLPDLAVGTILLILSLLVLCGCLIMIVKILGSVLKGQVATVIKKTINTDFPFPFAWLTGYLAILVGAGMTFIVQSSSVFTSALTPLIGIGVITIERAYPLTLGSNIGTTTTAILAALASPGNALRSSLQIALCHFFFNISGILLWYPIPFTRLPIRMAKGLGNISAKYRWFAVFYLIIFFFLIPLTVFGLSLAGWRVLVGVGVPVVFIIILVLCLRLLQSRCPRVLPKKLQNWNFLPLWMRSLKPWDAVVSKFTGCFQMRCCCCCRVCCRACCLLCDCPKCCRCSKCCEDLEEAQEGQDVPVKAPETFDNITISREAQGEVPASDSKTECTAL
From the text: HEK293 cells stably overexpressing human and rat Napi2b were generated by stable integration of a human or rat full-length Napi2b-mCherry-(GGGS)3x-mCherry expression construct under control of a human EF1 promoter and a Puromycin-selection cassette under a CMV promoter into the parental HEK293 cell line. In brief, cells were transfected with the linearized plasmids using Lipfectamine 2000 (Thermo Fisher) and selected with Puromycin antibiotic. Cells were then single cell cloned in 96-well plates via serial dilution under continuous antibiotic selection. Clones were screened for target expression via flow cytometry and mCherry fluorescence via flow cytometry and fluorescence microscopy. Target- and mCherry-positive clones were expanded and used for further experiments. […] Binding of antibodies was investigated on mCherry-positive cells. Mean fluorescence intensity (MFI) ratios were normalized to the secondary antibody control. The assay was performed in duplicates and data points were analyzed by a non-linear regression using a one-site specific binding model to derive KD values using Prism 9 software.

FcγRIIIa (CD16) (V158) = biological target: T6, FcγRIIIa (CD16) (V158) (Homo sapiens, UniProt P08637); experiment: Lumit FcγRIIIa (V158) Binding Immunoassay (Promega), left panel FcγRIIIa (CD16) (V158), competition with Tracer-LgBiT for FcγR-SmBiT, falling luminescence means binding, n=1
T6 construct: m21 joins both polymorphic variants; also called V158 variant of m21
T6 sequence (P08637 17-208 F176V limits assumed): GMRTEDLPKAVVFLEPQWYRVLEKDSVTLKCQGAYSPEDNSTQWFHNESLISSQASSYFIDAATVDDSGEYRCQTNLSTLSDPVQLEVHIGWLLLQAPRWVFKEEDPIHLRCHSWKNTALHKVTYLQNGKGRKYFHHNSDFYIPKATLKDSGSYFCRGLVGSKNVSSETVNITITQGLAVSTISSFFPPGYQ
Method: Luminescence is measured on a microplate reader Infinite M200 Pro (Tecan). Graphs show n=1.
Luminescence was measured on a microplate reader Infinite M200 Pro (Tecan). Graphs show n=1.

[6] = biological target: T4, human NaPi2b on NaPi2b-positive cell …; experiment: flow cytometry on NaPi2b-positive OVCAR-3 cells, Alexa-dye-labeled anti-human IgG H+L secondary antibody, MFI ratio normalized to the non-specific binding control
Method: as §1

B1: AV25 mAb, LALA-silenced (AV25 HC-LALA) (antibody, human IgG1, kappa, L234A L235A)
heavy: not shown
light: DIQMTQSPSSLSASVGDRVTITCSASQDIGNFLNWYQQKPGKTVKVLIYYASSLYSGVPSRFSGSGSGTDYTLTISSLQPEDFATYYCQQYSKLPLTFGQGTKLELKRTVAAPSVFIFPPSDEQLKSGTASVVCLLNNFYPREAKVQWKVDNALQSGNSQESVTEQDSKDSTYSLSSTLTLSKADYEKHKVYACEVTHQGLSSPVTKSFNRGEC
notes: also called unmodified AV25 mAb
Kd [1]: 71 pM
binding result (FcγRIIa (CD32) (H131)): no binding
binding result [2]: no binding (tested: 200 nM)
EC50 (read off the curve) [3]: ~0.4 µg/mL
Kd [4]: 0.0106 µg/mL
Kd [5]: 1520 pM
binding result (FcγRIIIa (CD16) (V158)): binds
EC50 (read off the curve) [6]: ~0.5 µg/mL
